B1: H348 Acrylodan: tsGBP2_C348 (SEQ ID NO: 35) Acrylodan conjugate (conjugate)
chain: MKLEIFSWWAGDEGPALEALIRLYKQKYPGVEVINATVTGGAGVNAKAVLKTRMLGGDPPDTFQVHAGQELIGTWVVADRMEDLTSLFRQEGWLQAFPKGLIDLLSYKGGIWSVPVNIHRSNVMWYIPAKLKEWGVTPPKTWAEFLATAQTLKRKGLEAPLALGENWTQQHLWESVALATLGADGWNNLWSGKLKFTDPKAVAVWETFGKVLDAANKDAAGLSWQQAVDRVVQGKAAFNIMGDWAAGYMSTTLKLKPGTDFAWTPSPGTSGIFMMLSDSFGLPKGAKNRQNAINWLKLVGSKEGQDTFNPLKGSIAARLDSDPAKYNAYGQSAMKDWKSNRIVGSLVCGAVAPESFMSQFGTVMEIFLQSRNPQAAANAAQAIANQVGLGRGGSHHHHHH
modifications: Acrylodan conjugate; tsGBP2_C348 (348C substitution mutant with signal peptide replaced with M and a GGSHHHHHH at C-terminus)
B2: W8M B: tsGBP2.13C.W8M (SEQ ID NO: 38) Badan conjugate (conjugate)
chain: MKLEIFSMWAGDCGPALEALIRLYKQKYPGVEVINATVTGGAGVNAKAVLKTRMLGGDPPDTFQVHAGQELIGTWVVADRMEDLTSLFRQEGWLQAFPKGLIDLLSYKGGIWSVPVNIHRSNVMWYIPAKLKEWGVTPPKTWAEFLATAQTLKRKGLEAPLALGENWTQQHLWESVALATLGADGWNNLWSGKLKFTDPKAVAVWETFGKVLDAANKDAAGLSWQQAVDRVVQGKAAFNIMGDWAAGYMSTTLKLKPGTDFAWTPSPGTSGIFMMLSDSFGLPKGAKNRQNAINWLKLVGSKEGQDTFNPLKGSIAARLDSDPAKYNAYGQSAMKDWKSNRIVGSLVHGAVAPESFMSQFGTVMEIFLQSRNPQAAANAAQAIANQVGLGRGGSHHHHHH
modifications: Badan conjugate; tsGBP2.13C.W8M (13C, 8M double substitution mutant with signal peptide replaced with M and a GGSHHHHHH at C-terminus)
B3: W9C Acrylodan: tsGBP2_C9 (SEQ ID NO: 18) Acrylodan conjugate (conjugate)
chain: MKLEIFSWCAGDEGPALEALIRLYKQKYPGVEVINATVTGGAGVNAKAVLKTRMLGGDPPDTFQVHAGQELIGTWVVADRMEDLTSLFRQEGWLQAFPKGLIDLLSYKGGIWSVPVNIHRSNVMWYIPAKLKEWGVTPPKTWAEFLATAQTLKRKGLEAPLALGENWTQQHLWESVALATLGADGWNNLWSGKLKFTDPKAVAVWETFGKVLDAANKDAAGLSWQQAVDRVVQGKAAFNIMGDWAAGYMSTTLKLKPGTDFAWTPSPGTSGIFMMLSDSFGLPKGAKNRQNAINWLKLVGSKEGQDTFNPLKGSIAARLDSDPAKYNAYGQSAMKDWKSNRIVGSLVHGAVAPESFMSQFGTVMEIFLQSRNPQAAANAAQAIANQVGLGRGGSHHHHHH
modifications: Acrylodan conjugate; tsGBP2_C9 (9C substitution mutant with signal peptide replaced with M and a GGSHHHHHH at C-terminus)
B4: W8C Badan: tsGBP2_C8 (SEQ ID NO: 17) Badan conjugate (conjugate)
chain: MKLEIFSCWAGDEGPALEALIRLYKQKYPGVEVINATVTGGAGVNAKAVLKTRMLGGDPPDTFQVHAGQELIGTWVVADRMEDLTSLFRQEGWLQAFPKGLIDLLSYKGGIWSVPVNIHRSNVMWYIPAKLKEWGVTPPKTWAEFLATAQTLKRKGLEAPLALGENWTQQHLWESVALATLGADGWNNLWSGKLKFTDPKAVAVWETFGKVLDAANKDAAGLSWQQAVDRVVQGKAAFNIMGDWAAGYMSTTLKLKPGTDFAWTPSPGTSGIFMMLSDSFGLPKGAKNRQNAINWLKLVGSKEGQDTFNPLKGSIAARLDSDPAKYNAYGQSAMKDWKSNRIVGSLVHGAVAPESFMSQFGTVMEIFLQSRNPQAAANAAQAIANQVGLGRGGSHHHHHH
modifications: Badan conjugate; tsGBP2_C8 (8C substitution mutant with signal peptide replaced with M and a GGSHHHHHH at C-terminus)
B5: W8F A: tsGBP2.13C.W8F (SEQ ID NO: 37) Acrylodan conjugate (conjugate)
chain: MKLEIFSFWAGDCGPALEALIRLYKQKYPGVEVINATVTGGAGVNAKAVLKTRMLGGDPPDTFQVHAGQELIGTWVVADRMEDLTSLFRQEGWLQAFPKGLIDLLSYKGGIWSVPVNIHRSNVMWYIPAKLKEWGVTPPKTWAEFLATAQTLKRKGLEAPLALGENWTQQHLWESVALATLGADGWNNLWSGKLKFTDPKAVAVWETFGKVLDAANKDAAGLSWQQAVDRVVQGKAAFNIMGDWAAGYMSTTLKLKPGTDFAWTPSPGTSGIFMMLSDSFGLPKGAKNRQNAINWLKLVGSKEGQDTFNPLKGSIAARLDSDPAKYNAYGQSAMKDWKSNRIVGSLVHGAVAPESFMSQFGTVMEIFLQSRNPQAAANAAQAIANQVGLGRGGSHHHHHH
modifications: Acrylodan conjugate; tsGBP2.13C.W8F (13C, 8F double substitution mutant)
B6: M357 Badan: tsGBP2_C357 (SEQ ID NO: 36) Badan conjugate (conjugate)
chain: MKLEIFSWWAGDEGPALEALIRLYKQKYPGVEVINATVTGGAGVNAKAVLKTRMLGGDPPDTFQVHAGQELIGTWVVADRMEDLTSLFRQEGWLQAFPKGLIDLLSYKGGIWSVPVNIHRSNVMWYIPAKLKEWGVTPPKTWAEFLATAQTLKRKGLEAPLALGENWTQQHLWESVALATLGADGWNNLWSGKLKFTDPKAVAVWETFGKVLDAANKDAAGLSWQQAVDRVVQGKAAFNIMGDWAAGYMSTTLKLKPGTDFAWTPSPGTSGIFMMLSDSFGLPKGAKNRQNAINWLKLVGSKEGQDTFNPLKGSIAARLDSDPAKYNAYGQSAMKDWKSNRIVGSLVHGAVAPESFCSQFGTVMEIFLQSRNPQAAANAAQAIANQVGLGRGGSHHHHHH
modifications: Badan conjugate; tsGBP2_C357 (357C substitution mutant with signal peptide replaced with M and a GGSHHHHHH at C-terminus)
B7: W9C Badan: tsGBP2_C9 (SEQ ID NO: 18) Badan conjugate (conjugate)
chain: MKLEIFSWCAGDEGPALEALIRLYKQKYPGVEVINATVTGGAGVNAKAVLKTRMLGGDPPDTFQVHAGQELIGTWVVADRMEDLTSLFRQEGWLQAFPKGLIDLLSYKGGIWSVPVNIHRSNVMWYIPAKLKEWGVTPPKTWAEFLATAQTLKRKGLEAPLALGENWTQQHLWESVALATLGADGWNNLWSGKLKFTDPKAVAVWETFGKVLDAANKDAAGLSWQQAVDRVVQGKAAFNIMGDWAAGYMSTTLKLKPGTDFAWTPSPGTSGIFMMLSDSFGLPKGAKNRQNAINWLKLVGSKEGQDTFNPLKGSIAARLDSDPAKYNAYGQSAMKDWKSNRIVGSLVHGAVAPESFMSQFGTVMEIFLQSRNPQAAANAAQAIANQVGLGRGGSHHHHHH
modifications: Badan conjugate; tsGBP2_C9 (9C substitution mutant with signal peptide replaced with M and a GGSHHHHHH at C-terminus)
B8: W8C Acrylodan: tsGBP2_C8 (SEQ ID NO: 17) Acrylodan conjugate (conjugate)
chain: MKLEIFSCWAGDEGPALEALIRLYKQKYPGVEVINATVTGGAGVNAKAVLKTRMLGGDPPDTFQVHAGQELIGTWVVADRMEDLTSLFRQEGWLQAFPKGLIDLLSYKGGIWSVPVNIHRSNVMWYIPAKLKEWGVTPPKTWAEFLATAQTLKRKGLEAPLALGENWTQQHLWESVALATLGADGWNNLWSGKLKFTDPKAVAVWETFGKVLDAANKDAAGLSWQQAVDRVVQGKAAFNIMGDWAAGYMSTTLKLKPGTDFAWTPSPGTSGIFMMLSDSFGLPKGAKNRQNAINWLKLVGSKEGQDTFNPLKGSIAARLDSDPAKYNAYGQSAMKDWKSNRIVGSLVHGAVAPESFMSQFGTVMEIFLQSRNPQAAANAAQAIANQVGLGRGGSHHHHHH
modifications: Acrylodan conjugate; tsGBP2_C8 (8C substitution mutant with signal peptide replaced with M and a GGSHHHHHH at C-terminus)
B9: W8F B: tsGBP2.13C.W8F (SEQ ID NO: 37) Badan conjugate (conjugate)
chain: MKLEIFSFWAGDCGPALEALIRLYKQKYPGVEVINATVTGGAGVNAKAVLKTRMLGGDPPDTFQVHAGQELIGTWVVADRMEDLTSLFRQEGWLQAFPKGLIDLLSYKGGIWSVPVNIHRSNVMWYIPAKLKEWGVTPPKTWAEFLATAQTLKRKGLEAPLALGENWTQQHLWESVALATLGADGWNNLWSGKLKFTDPKAVAVWETFGKVLDAANKDAAGLSWQQAVDRVVQGKAAFNIMGDWAAGYMSTTLKLKPGTDFAWTPSPGTSGIFMMLSDSFGLPKGAKNRQNAINWLKLVGSKEGQDTFNPLKGSIAARLDSDPAKYNAYGQSAMKDWKSNRIVGSLVHGAVAPESFMSQFGTVMEIFLQSRNPQAAANAAQAIANQVGLGRGGSHHHHHH
modifications: Badan conjugate; tsGBP2.13C.W8F (13C, 8F double substitution mutant)
B10: M357 Acrylodan: tsGBP2_C357 (SEQ ID NO: 36) Acrylodan conjugate (conjugate)
chain: MKLEIFSWWAGDEGPALEALIRLYKQKYPGVEVINATVTGGAGVNAKAVLKTRMLGGDPPDTFQVHAGQELIGTWVVADRMEDLTSLFRQEGWLQAFPKGLIDLLSYKGGIWSVPVNIHRSNVMWYIPAKLKEWGVTPPKTWAEFLATAQTLKRKGLEAPLALGENWTQQHLWESVALATLGADGWNNLWSGKLKFTDPKAVAVWETFGKVLDAANKDAAGLSWQQAVDRVVQGKAAFNIMGDWAAGYMSTTLKLKPGTDFAWTPSPGTSGIFMMLSDSFGLPKGAKNRQNAINWLKLVGSKEGQDTFNPLKGSIAARLDSDPAKYNAYGQSAMKDWKSNRIVGSLVHGAVAPESFCSQFGTVMEIFLQSRNPQAAANAAQAIANQVGLGRGGSHHHHHH
modifications: Acrylodan conjugate; tsGBP2_C357 (357C substitution mutant with signal peptide replaced with M and a GGSHHHHHH at C-terminus)

Experiment: Ratiometric fluorescence glucose titration of fluorescent conjugates
Format: binding
Parameters: key to Shape (fluorescence response to glucose) / Change (fluorescence response to glucose): m, monochromatic; d, dichromatic (i.e. spectral shape change); 0, no change
Settings: for Change (fluorescence response to glucose): tsGBP 13C affinity mutants, Acrylodan or Badan conjugates
In short: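 Single-cysteine glucose-binding protein mutants labelled site-specifically with thiol-reactive environmentally sensitive fluorophores; emission spectra recorded during glucose titration to detect ligand-mediated intensity and spectral-shape changes for ratiometric read-out. Temperature- and ligand-dependent fluorescence landscapes acquired in 1K steps; binding fitted to single-site fractional saturation.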

[1] = tsGBP2 cysteine scan, Acrylodan conjugate
[2] = tsGBP2 cysteine scan, Badan conjugate

| Molecule | Shape (fluorescence response to glucose) [1] | Change (fluorescence response to glucose) | Shape (fluorescence response to glucose) [2] | further results |
| --- | --- | --- | --- | --- |
| B1 | m | – | – | Kd (tsGBP2 cysteine scan, Acrylodan conjugate, ratiometric fit at λ1 and λ2, read-out: Kd ^appKd): ~1300 µM |
| B2 | – | m | – | – |
| B3 | m | – | – | – |
| B4 | – | – | m | – |
| B5 | – | 0 | – | – |
| B6 | – | – | m | – |
| B7 | – | – | m | – |
| B8 | m | – | – | – |
| B9 | – | 0 | – | – |
| B10 | 0 | – | – | – |

— patent US11402384B2 (Duke University, priority 2015, dated 2022)
